# Laboratory results published in IntAct's records for PubMed 9025305.
# Assays:
# rbp1b_arath RANBP1B = rbp1b_arath RANBP1B (UniProt Q8RWG8)
# rbp1a_arath RANBP1A = rbp1a_arath RANBP1A (UniProt Q9LMK7)
# Chain of rbp1a_arath RANBP1A (Q9LMK7 whole entry): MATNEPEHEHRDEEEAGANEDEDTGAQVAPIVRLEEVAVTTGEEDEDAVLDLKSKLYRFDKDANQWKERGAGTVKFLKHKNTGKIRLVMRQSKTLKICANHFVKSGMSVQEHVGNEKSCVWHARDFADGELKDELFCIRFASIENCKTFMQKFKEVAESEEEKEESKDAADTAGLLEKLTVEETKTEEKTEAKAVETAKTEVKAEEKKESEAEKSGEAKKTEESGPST
# Chain of GTP-binding nuclear protein Ran-1 (Arabidopsis thaliana (Mouse-ear cress)), P41916 T24D (P41916 whole entry T24D): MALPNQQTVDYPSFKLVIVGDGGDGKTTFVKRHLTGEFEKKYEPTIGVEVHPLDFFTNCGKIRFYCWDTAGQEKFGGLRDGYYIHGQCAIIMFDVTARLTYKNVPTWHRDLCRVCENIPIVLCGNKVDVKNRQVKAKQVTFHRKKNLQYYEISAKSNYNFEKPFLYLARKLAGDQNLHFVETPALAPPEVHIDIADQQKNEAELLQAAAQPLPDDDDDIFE
# Chain of rbp1b_arath RANBP1B (Q8RWG8 whole entry): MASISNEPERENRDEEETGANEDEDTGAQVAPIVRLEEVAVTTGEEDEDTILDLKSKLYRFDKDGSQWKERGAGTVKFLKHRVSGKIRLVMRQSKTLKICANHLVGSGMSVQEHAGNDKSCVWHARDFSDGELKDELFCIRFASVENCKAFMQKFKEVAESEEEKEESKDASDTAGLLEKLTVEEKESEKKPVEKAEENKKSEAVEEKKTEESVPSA
substance,measurement,setting,value
"GTP-binding nuclear protein Ran-1 (Arabidopsis thaliana (Mouse-ear cress)), P41916 T24D",effect of a mutation on the interaction,rbp1b_arath RANBP1B,disrupting interaction
same,effect of a mutation on the interaction,rbp1a_arath RANBP1A,disrupting interaction
